Measured values published in patent US20250262210A1 (TRUSTEES OF COLUMBIA UNIVERSITY IN THE CITY OF NEW YORK, published 2025).

Assays:
Assay in all cases: IP/MS, LZTR1 wild type-FLAG, U87
[1] = target: T1, EMC1 (human, UniProt Q8N766 23-993, limits assumed)
T1 sequence (looked up): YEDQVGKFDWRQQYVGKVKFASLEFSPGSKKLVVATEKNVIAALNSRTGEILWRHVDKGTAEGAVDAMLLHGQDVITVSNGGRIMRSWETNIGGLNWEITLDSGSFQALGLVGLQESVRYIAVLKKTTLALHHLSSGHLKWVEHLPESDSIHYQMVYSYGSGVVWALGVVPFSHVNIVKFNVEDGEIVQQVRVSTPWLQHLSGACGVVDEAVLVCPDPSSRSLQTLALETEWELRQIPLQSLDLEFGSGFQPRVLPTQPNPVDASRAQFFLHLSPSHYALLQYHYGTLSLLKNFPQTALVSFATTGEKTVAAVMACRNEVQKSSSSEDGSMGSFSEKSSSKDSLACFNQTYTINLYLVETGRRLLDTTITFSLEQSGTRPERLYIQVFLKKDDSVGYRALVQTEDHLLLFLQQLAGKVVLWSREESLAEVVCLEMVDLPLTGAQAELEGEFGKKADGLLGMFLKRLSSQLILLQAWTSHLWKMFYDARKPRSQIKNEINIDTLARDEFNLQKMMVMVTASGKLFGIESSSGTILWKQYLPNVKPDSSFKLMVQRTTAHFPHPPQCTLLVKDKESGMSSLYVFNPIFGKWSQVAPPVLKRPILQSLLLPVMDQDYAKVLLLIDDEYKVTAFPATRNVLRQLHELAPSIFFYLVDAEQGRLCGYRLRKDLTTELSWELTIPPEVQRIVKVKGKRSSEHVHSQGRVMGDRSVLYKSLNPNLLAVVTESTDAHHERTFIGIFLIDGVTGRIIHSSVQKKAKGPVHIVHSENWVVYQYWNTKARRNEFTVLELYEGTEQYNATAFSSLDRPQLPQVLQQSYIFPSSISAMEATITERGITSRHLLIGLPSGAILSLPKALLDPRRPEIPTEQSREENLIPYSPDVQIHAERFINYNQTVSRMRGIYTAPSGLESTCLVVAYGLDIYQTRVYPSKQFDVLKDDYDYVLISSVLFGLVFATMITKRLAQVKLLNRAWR
In short: (§1)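 Gel slices were reduced with 5 mM DTT, alkylated with 11 mM IAA and digested overnight at 37° C. with trypsin. Peptides were analysed on an Orbitrap Fusion Tribrid by LC-MS/MS.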

[2] = target: RUSC2 (human, UniProt Q8N2Y8 1-1516)
In short: as §1

[3] = target: T2, STK11IP (human, UniProt Q8N1F8 1-1088)
T2 sequence (looked up): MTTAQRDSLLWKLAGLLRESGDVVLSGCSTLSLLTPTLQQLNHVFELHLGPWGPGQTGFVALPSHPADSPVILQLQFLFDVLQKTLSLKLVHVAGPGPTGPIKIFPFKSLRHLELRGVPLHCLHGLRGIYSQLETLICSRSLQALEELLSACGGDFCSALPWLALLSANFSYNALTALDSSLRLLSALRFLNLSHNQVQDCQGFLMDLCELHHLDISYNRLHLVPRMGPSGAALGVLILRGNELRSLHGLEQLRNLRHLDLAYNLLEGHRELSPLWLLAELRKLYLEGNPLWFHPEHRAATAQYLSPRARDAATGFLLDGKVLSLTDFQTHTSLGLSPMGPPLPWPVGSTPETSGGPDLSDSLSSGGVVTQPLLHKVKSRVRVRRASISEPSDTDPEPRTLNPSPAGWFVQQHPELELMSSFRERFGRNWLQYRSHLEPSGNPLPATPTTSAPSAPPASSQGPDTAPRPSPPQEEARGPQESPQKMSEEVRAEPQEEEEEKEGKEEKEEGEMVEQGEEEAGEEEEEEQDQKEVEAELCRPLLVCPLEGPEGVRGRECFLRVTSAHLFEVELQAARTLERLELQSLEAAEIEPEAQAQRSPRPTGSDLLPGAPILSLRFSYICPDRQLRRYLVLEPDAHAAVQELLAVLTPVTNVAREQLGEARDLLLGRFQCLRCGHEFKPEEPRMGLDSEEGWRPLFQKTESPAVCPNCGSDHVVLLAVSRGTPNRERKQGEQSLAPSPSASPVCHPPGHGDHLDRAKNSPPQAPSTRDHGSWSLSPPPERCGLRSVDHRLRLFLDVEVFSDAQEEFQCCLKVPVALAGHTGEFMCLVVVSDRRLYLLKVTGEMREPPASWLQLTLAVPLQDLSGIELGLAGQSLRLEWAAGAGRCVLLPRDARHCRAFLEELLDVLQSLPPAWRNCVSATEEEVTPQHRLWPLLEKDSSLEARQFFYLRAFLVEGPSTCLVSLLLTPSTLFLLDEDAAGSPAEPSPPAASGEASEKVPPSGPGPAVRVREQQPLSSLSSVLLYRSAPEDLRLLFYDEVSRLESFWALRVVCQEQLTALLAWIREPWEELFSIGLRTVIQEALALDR
In short: as §1

[4] = target: RICTOR (human, UniProt Q6R327 1-1708, limits assumed)
In short: as §1

[5] = target: ARHGAP31 (human, UniProt Q2M1Z3 1-1444)
In short: as §1

[6] = target: TRRAP (human, UniProt Q9Y4A5 2-3859, limits assumed)
Chain of TRRAP (Q9Y4A5 2-3859 limits assumed): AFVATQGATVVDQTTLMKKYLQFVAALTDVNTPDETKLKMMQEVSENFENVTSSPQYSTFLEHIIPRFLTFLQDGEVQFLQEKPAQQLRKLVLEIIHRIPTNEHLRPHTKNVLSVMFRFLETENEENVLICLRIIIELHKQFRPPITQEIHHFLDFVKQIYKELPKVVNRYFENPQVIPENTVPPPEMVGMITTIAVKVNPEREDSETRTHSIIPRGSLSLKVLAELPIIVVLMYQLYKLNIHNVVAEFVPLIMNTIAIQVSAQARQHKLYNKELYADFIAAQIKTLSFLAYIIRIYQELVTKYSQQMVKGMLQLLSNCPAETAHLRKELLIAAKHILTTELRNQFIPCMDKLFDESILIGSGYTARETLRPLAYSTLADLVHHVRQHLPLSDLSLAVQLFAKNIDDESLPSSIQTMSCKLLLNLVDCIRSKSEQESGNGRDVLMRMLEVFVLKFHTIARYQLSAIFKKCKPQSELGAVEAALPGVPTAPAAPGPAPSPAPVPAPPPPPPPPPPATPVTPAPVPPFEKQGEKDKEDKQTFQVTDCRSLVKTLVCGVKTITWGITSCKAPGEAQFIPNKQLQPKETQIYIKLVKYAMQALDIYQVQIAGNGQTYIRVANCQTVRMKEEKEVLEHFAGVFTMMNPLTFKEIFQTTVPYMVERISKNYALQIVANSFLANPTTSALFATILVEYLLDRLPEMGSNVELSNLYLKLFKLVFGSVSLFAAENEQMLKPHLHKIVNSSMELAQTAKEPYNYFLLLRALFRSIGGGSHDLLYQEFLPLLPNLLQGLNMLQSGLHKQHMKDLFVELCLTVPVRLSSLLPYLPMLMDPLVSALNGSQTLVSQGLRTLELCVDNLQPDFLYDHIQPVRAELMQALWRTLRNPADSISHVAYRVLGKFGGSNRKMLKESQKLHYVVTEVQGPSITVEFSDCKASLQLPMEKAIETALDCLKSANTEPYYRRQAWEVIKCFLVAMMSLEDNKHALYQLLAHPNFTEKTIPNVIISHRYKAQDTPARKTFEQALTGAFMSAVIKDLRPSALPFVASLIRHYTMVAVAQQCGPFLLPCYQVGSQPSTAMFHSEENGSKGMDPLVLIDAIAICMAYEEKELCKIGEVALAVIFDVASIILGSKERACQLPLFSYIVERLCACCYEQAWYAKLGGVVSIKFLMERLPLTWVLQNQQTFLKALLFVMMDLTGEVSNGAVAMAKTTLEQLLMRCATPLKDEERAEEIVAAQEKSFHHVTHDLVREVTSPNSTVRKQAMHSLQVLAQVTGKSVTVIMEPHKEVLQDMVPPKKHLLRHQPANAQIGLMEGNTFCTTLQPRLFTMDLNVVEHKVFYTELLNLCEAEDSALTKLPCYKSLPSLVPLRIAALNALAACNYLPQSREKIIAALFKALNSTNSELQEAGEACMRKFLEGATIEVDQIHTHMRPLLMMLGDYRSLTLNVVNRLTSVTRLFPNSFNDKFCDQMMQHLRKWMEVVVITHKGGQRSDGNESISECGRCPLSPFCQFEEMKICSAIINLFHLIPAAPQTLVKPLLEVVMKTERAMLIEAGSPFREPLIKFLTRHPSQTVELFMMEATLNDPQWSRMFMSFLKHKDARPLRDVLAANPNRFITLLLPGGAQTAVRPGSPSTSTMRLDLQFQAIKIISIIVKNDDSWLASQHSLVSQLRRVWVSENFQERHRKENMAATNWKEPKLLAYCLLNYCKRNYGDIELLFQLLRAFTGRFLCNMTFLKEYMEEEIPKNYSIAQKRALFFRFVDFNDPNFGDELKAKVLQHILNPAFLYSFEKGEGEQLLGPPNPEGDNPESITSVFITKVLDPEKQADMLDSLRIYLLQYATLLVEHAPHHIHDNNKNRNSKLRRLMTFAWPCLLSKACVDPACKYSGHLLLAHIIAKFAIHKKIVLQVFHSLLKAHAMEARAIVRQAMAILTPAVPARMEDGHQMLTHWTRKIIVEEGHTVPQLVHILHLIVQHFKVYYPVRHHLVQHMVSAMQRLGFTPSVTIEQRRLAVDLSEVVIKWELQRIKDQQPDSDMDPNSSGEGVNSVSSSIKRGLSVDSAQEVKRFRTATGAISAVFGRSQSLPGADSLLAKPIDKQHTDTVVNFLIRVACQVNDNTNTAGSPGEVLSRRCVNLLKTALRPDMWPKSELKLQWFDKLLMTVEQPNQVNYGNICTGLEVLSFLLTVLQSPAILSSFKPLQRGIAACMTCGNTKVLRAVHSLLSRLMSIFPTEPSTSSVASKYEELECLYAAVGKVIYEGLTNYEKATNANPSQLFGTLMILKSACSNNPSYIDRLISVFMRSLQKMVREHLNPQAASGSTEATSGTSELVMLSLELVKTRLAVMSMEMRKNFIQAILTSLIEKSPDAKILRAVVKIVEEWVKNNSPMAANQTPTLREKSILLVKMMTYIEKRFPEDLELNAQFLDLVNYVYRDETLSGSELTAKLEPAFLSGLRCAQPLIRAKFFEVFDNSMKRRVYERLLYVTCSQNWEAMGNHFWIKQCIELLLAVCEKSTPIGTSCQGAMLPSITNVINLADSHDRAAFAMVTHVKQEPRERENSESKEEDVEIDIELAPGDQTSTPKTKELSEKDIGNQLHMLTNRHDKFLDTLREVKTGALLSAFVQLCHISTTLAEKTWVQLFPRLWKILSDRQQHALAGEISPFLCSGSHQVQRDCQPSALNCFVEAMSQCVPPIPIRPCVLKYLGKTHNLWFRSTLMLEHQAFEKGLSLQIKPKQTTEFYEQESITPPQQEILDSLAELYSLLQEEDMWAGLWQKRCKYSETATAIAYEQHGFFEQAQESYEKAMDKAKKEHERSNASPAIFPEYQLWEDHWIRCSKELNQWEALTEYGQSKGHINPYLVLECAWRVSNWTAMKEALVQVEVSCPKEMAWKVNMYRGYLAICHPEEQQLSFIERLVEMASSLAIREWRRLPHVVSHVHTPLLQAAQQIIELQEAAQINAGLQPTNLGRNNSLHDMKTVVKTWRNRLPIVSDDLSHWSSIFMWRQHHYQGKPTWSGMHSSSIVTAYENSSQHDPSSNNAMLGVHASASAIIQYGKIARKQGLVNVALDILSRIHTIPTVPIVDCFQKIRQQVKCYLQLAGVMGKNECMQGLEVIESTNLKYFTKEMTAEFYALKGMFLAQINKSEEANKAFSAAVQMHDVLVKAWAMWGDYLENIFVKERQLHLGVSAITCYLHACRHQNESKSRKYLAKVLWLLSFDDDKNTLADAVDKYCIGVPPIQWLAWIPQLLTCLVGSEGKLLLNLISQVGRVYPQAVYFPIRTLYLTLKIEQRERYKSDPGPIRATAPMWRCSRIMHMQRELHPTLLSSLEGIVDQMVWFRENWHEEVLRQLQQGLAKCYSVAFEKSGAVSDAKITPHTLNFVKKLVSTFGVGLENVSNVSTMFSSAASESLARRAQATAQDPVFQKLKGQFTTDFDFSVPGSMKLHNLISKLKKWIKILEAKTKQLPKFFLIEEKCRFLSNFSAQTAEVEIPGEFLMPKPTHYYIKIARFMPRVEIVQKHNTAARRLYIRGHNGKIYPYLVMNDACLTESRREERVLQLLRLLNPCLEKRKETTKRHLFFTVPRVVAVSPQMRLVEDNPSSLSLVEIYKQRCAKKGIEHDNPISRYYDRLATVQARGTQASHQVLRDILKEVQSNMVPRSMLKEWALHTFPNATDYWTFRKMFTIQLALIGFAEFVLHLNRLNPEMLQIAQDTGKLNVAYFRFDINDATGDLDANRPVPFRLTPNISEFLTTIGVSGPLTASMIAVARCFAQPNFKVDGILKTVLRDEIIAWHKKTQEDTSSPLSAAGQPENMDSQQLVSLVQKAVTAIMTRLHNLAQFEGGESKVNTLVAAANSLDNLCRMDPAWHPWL
In short: as §1

Measured: binding result

B1: LZTR1-FLAG (other, human, UniProt Q8N653 1-840, looked up)
chain: MAGPGSTGGQIGAAALAGGARSKVAPSVDFDHSCSDSVEYLTLNFGPFETVHRWRRLPPCDEFVGARRSKHTVVAYKDAIYVFGGDNGKTMLNDLLRFDVKDCSWCRAFTTGTPPAPRYHHSAVVYGSSMFVFGGYTGDIYSNSNLKNKNDLFEYKFATGQWTEWKIEGRLPVARSAHGATVYSDKLWIFAGYDGNARLNDMWTIGLQDRELTCWEEVAQSGEIPPSCCNFPVAVCRDKMFVFSGQSGAKITNNLFQFEFKDKTWTRIPTEHLLRGSPPPPQRRYGHTMVAFDRHLYVFGGAADNTLPNELHCYDVDFQTWEVVQPSSDSEVGGAEVPERACASEEVPTLTYEERVGFKKSRDVFGLDFGTTSAKQPTQPASELPSGRLFHAAAVISDAMYIFGGTVDNNIRSGEMYRFQFSCYPKCTLHEDYGRLWESRQFCDVEFVLGEKEECVQGHVAIVTARSRWLRRKITQARERLAQKLEQEAAPVPREAPGVAAGGARPPLLHVAIREAEARPFEVLMQFLYTDKIKYPRKGHVEDVLLIMDVYKLALSFQLCRLEQLCRQYIEASVDLQNVLVVCESAARLQLSQLKEHCLNFVVKESHFNQVIMMKEFERLSSPLIVEIVRRKQQPPPRTPLDQPVDIGTSLIQDMKAYLEGAGAEFCDITLLLDGHPRPAHKAILAARSSYFEAMFRSFMPEDGQVNISIGEMVPSRQAFESMLRYIYYGEVNMPPEDSLYLFAAPYYYGFYNNRLQAYCKQNLEMNVTVQNVLQILEAADKTQALDMKRHCLHIIVHQFTKVSKLPTLRSLSQQLLLDIIDSLASHISDKQCAELGADI
notes: Expressed in HEK 293T, HeLa or U87 cells; used as cell lysate; also called LZTR1 wild type-FLAG; LZTR1 WT; not shown: FLAG tag at the C-terminus
binds: all assays above
